Patent US20100316989A1, “METHOD FOR SCREENING AN […] OF HBV PROLIFERATION BY USING THE INTERACTION BETWEEN HBV CAPSID AND SURFACE PROTEINS BASED ON CELLULAR IMAGING” (KOREA INSTITUTE OF SCIENCE AND TECHNOLOGY, priority 2007, published 2010)

Tests used:
[1] = biological target: interaction between capsid protein and PreS protein (Hepatitis B virus genotype D subtype ayw, UniProt P03146, F97I/I116L/INS152DR/S87N/V74N); settings: serially diluted peptide; Trx-PreS fixed on plate, purified capsid protein; FIG. 5
[2] = system: interaction between PreS and capsid protein (PreS-PH / Capsid-GFP) in HEK293T cells; type: cell-based; settings: 50 μM peptide; transfected HEK293T cells; FIG. 6

“RQPTPISPPLRDSHPQAMQWNS (deleted L4b peptide) [PreS derived peptide, PreS derived peptide (ΔL4b peptide; ID; NO: 21]” was tested, and the “inhibition of the interaction between capsid protein and PreS protein (OD490)” value [1] was “inhibited the interaction between capsid protein and PreS protein dose-dependently” and the “location of GFP fluorescence image of Capsid-GFP fusion protein (inhibition of interaction)” value [2] was “located not in cell membrane but in cytoplasm of cells”.
